Results taken from patent publication US9013690.

Target: Beta Amyloid 1-40 (human) (UniProt P05067)
Assay: fluorescence sandwich immunoassay on D2PA plate, 6E10 capture and anti-Aβ42 detection, Aβ40 as analyte

Cross-Reactivity: 0.06%
Substance: anti-Aβ42 (biotinylated detection antibody of the Covance Aβ-42 ELISA kit)
